Reference: patent publication US20030068675, “Position dependent recognition of GNN nucleotide triplets by zinc fingers” (published 2003)
Positions count from the first letter of the chain named.

Columns and labels:
Experiment in all cases: EMSA
Details in all cases: tags: MBP fusion
ZFP SBS#1435 = target: T1, ZFP SBS#1435 (synthetic)
T1 chain: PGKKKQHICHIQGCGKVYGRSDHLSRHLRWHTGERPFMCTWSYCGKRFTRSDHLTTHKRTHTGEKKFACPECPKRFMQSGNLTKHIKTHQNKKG
In short: (§1)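 Purified ZFP was titrated against labeled double-stranded target (1 nM or lower, at least 10-fold below expected Kd) carrying the natural binding site with flanks. Binding buffer was 10 mM Tris pH 7.5, 100 mM KCl, 1 mM MgCl2, 0.1 mM ZnCl2, 5 mM DTT, 10% glycerol, 0.02% BSA, with equilibration for at least 45 min. Bound and free target were separated on a 10% polyacrylamide gel.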

ZFP SBS#1398 = target: T2, ZFP SBS#1398 (synthetic)
T2 chain: T1 chain with T83R, K84T
In short: as §1

ZFP SBS#1436 = target: T3, ZFP SBS#1436 (synthetic, UniProt P08047)
T3 chain: T1 chain with R20T, S25A, R26S, H53N, T55A, T56R, Q78R, G80D, N81H, K84T
In short: as §1

ZFP SBS#1399 = target: T4, ZFP SBS#1399 (synthetic, UniProt P08047)
T4 chain: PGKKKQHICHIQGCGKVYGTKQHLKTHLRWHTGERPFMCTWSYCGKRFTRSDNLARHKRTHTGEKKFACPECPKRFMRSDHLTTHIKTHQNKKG
In short: as §1

ZFP SBS#1401 = target: T5, ZFP SBS#1401 (synthetic)
T5 chain: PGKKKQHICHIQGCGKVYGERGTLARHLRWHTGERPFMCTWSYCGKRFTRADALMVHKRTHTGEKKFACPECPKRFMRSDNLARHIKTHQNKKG
In short: as §1

ZFP SBS#1417 = target: T6, ZFP SBS#1417 (synthetic)
T6 chain: T5 chain with A51G, M55T, V56S
In short: as §1

ZFP SBS#1418 = target: T7, ZFP SBS#1418 (synthetic)
T7 chain: T4 chain with T20R, K21A, Q22D, H23A, K25M, T26V, H81A, T83R, T84E
In short: as §1

ZFP SBS#1402 = target: T8, ZFP SBS#1402 (synthetic)
T8 chain: T4 chain with T20R, K21G, Q22D, H23A, K25T, T26S, H81A, T83R, T84E
In short: as §1

ZFP SBS#1405 = target: T9, ZFP SBS#1405 (synthetic)
T9 chain: T1 chain with R50Q, D52G, H53D, T56R, Q78R, G80D, T83A, K84R
In short: as §1

ZFP SBS#1404 = target: T10, ZFP SBS#1404 (synthetic)
T10 chain: T1 chain with R50Q, D52G, H53S, T56R, Q78R, G80D, T83A, K84R
In short: as §1

ZFP SBS#1406 = ZFP SBS#1406 (synthetic)
In short: as §1

ZFP SBS#1407 = ZFP SBS#1407 (synthetic)
In short: as §1

ZFP SBS#1409 = target: T11, ZFP SBS#1409 (synthetic)
T11 chain: T1 chain with R50Q, D52G, H53S, T56R, Q78R, G80D, N81D, T83R, K84E
In short: as §1

ZFP SBS#1408 = target: T12, ZFP SBS#1408 (synthetic)
T12 chain: T1 chain with R50Q, D52G, H53S, T56R, Q78R, G80D, N81E, T83R, K84E
In short: as §1

ZFP SBS#1410 = target: T13, ZFP SBS#1410 (synthetic, UniProt P08047)
T13 chain: T1 chain with H23E, S25T, H53E, T55Q, T56R, Q78R, G80D, N81E, T83R, K84E
In short: as §1

ZFP SBS#1411 = ZFP SBS#1411 (synthetic)
In short: as §1

ZFP SBS#1429 = ZFP SBS#1429 (synthetic)
In short: as §1

ZFP SBS#1428 = ZFP SBS#1428 (synthetic)
In short: as §1

ZFP SBS#1434 = target: T14, ZFP SBS#1434 (synthetic)
T14 chain: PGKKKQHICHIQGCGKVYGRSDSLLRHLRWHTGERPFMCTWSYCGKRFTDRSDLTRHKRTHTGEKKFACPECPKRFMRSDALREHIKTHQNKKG
In short: as §1

ZFP SBS#1412 = target: T15, ZFP SBS#1412 (synthetic)
T15 chain: T14 chain with D50E, S52G, D53T, T55A
In short: as §1

ZFP SBS#1414 = target: T16, ZFP SBS#1414 (synthetic)
T16 chain: T14 chain with S23E, L25T, D50E, S52G, D53T, T55A
In short: as §1

ZFP SBS#1413 = target: T17, ZFP SBS#1413 (synthetic)
T17 chain: T14 chain with S23E, L25T
In short: as §1

ZFP SBS#1416 = target: T18, ZFP SBS#1416 (synthetic)
T18 chain: T14 chain with S23N, L25A, D50E, S52G, D53T, T55A, A81E, R83Q, E84R
In short: as §1

ZFP SBS#1415 = target: T19, ZFP SBS#1415 (synthetic)
T19 chain: T14 chain with S23N, L25A, A81E, R83Q, E84R
In short: as §1

ZFP SBS#1423 = target: T20, ZFP SBS#1423 (synthetic)
T20 chain: T1 chain with H23E, S25T, H53D, T56K, Q78R, G80D, N81H, T83S, K84R
In short: as §1

ZFP SBS#1422 = target: T21, ZFP SBS#1422 (synthetic)
T21 chain: T1 chain with H23E, S25T, H53D, Q78R, G80D, N81H, T83S, K84R
In short: as §1

ZFP SBS#1424 = target: T22, ZFP SBS#1424 (synthetic)
T22 chain: T14 chain with S23E, L25R, R26E, D53H, T55A, A81N
In short: as §1

ZFP SBS#1427 = target: T23, ZFP SBS#1427 (synthetic)
T23 chain: T14 chain with S23D, L25R, R26E, D53H, T55A, A81N, R83T
In short: as §1

ZFP SBS#1430 = target: T24, ZFP SBS#1430 (synthetic)
T24 chain: T14 chain with R20E, S21R, D22G, S23T, L25A, A81D, R83T, E84K
In short: as §1

ZFP SBS#1432 = target: T25, ZFP SBS#1432 (synthetic)
T25 chain: T5 chain with R50E, A51R, D52G, A53T, M55A, V56R, N81D, A83T, R84K
In short: as §1

ZFP SBS#1431 = target: T26, ZFP SBS#1431 (synthetic)
T26 chain: T5 chain with R50D, A51R, D52S, A53D, M55T, V56R, N81D, R84S
In short: as §1

ZFP SBS#1439 = ZFP SBS#1439 (synthetic)
In short: as §1

ZFP SBS#1440 = ZFP SBS#1440 (synthetic)
In short: as §1

ZFP SBS#1441 = ZFP SBS#1441 (synthetic)
In short: as §1

ZFP SBS#1439 (synthetic), sequence (chain, as listed by the source): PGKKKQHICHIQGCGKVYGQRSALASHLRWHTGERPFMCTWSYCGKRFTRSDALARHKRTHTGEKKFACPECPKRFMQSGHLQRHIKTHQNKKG
ZFP SBS#1407 (synthetic), sequence (chain, as listed by the source): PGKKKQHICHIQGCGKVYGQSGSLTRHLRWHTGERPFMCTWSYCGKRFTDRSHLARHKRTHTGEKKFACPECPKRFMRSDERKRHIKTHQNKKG
ZFP SBS#1440 (synthetic), sequence (chain, as listed by the source): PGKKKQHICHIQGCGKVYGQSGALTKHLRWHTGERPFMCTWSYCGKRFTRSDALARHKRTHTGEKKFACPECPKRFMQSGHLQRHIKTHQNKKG
ZFP SBS#1441 (synthetic), sequence (chain, as listed by the source): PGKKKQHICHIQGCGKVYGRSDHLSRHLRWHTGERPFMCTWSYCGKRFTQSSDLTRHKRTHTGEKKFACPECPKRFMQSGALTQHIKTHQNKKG
ZFP SBS#1406 (synthetic), sequence (chain, as listed by the source): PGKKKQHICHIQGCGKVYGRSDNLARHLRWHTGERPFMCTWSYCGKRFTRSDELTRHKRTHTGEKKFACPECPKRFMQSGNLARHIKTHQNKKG

B1: TAATGGGGG (dsDNA)
DNA 1: TAATGGGGG
DNA 2: CCCCCATTA
B1 showed a Kd (ZFP SBS#1435) of 0.057 nM and a Kd (ZFP SBS#1398) of 0.065 nM.

B2: TGGGAGTGT (dsDNA)
DNA 1: TGGGAGTGT
DNA 2: ACACTCCCA
Binder B2 has a Kd (ZFP SBS#1436) of 0.026 nM and a Kd (ZFP SBS#1399) of 0.1 nM.

B3: GAGTTGGCC (dsDNA)
DNA 1: GAGTTGGCC
DNA 2: GGCCAACTC
In the case of B3, the Kd (ZFP SBS#1401) is reported as 0.167 nM and the Kd (ZFP SBS#1417) is reported as 1.4 nM.

B4: CTGGAGTTG (dsDNA)
DNA 1: CTGGAGTTG
DNA 2: CAACTCCAG
In the case of B4, the Kd (ZFP SBS#1418) is reported as 0.241 nM and the Kd (ZFP SBS#1402) is reported as 0.15 nM.

B5: GAGGCAGGG (dsDNA)
DNA 1: GAGGCAGGG
DNA 2: CCCTGCCTC
In the case of B5, the Kd (ZFP SBS#1405) is reported as 0.045 nM and the Kd (ZFP SBS#1404) is reported as 0.022 nM.

B6: GAAGCGGAG (dsDNA)
DNA 1: GAAGCGGAG
DNA 2: CTCCGCTTC
B6 gave a Kd (ZFP SBS#1406) of 0.025 nM.

B7: GCGGGCGCA (dsDNA)
DNA 1: GCGGGCGCA
DNA 2: TGCGCCCGC
B7 gave a Kd (ZFP SBS#1407) of 0.585 nM.

B8: CCGGCAGGG (dsDNA)
DNA 1: CCGGCAGGG
DNA 2: CCCTGCCGG
B8 gave a Kd (ZFP SBS#1409) of 0.153 nM and a Kd (ZFP SBS#1408) of 0.305 nM.

B9: CCGGCGGCG (dsDNA)
DNA 1: CCGGCGGCG
DNA 2: CGCCGCCGG
B9 was tested, and the Kd (ZFP SBS#1410) was 0.814 nM.

B10: TGAGGCGAG (dsDNA)
DNA 1: TGAGGCGAG
DNA 2: CTCGCCTCA
In the case of B10, the Kd (ZFP SBS#1411) is reported as 0.282 nM, the Kd (ZFP SBS#1429) is reported as 0.074 nM and the Kd (ZFP SBS#1428) is reported as 0.102 nM.

B11: CTGGCCGTG (dsDNA)
DNA 1: CTGGCCGTG
DNA 2: CACGGCCAG
With B11 the Kd (ZFP SBS#1434) was 0.051 nM and the Kd (ZFP SBS#1412) was 0.172 nM.

B12: CTGGCCGCG (dsDNA)
DNA 1: CTGGCCGCG
DNA 2: CGCGGCCAG
B12 showed a Kd (ZFP SBS#1414) of 0.914 nM and a Kd (ZFP SBS#1413) of 0.152 nM.

B13: GCGGCCGAG (dsDNA)
DNA 1: GCGGCCGAG
DNA 2: CTCGGCCGC
B13 gave a Kd (ZFP SBS#1416) of 0.153 nM and a Kd (ZFP SBS#1415) of 0.102 nM.

B14: GGGTCGGCG (dsDNA)
DNA 1: GGGTCGGCG
DNA 2: CGCCGACCC
Work on B14 yielded a Kd (ZFP SBS#1423) of 0.034 nM and a Kd (ZFP SBS#1422) of 0.064 nM.

B15: CAGGGCCCG (dsDNA)
DNA 1: CAGGGCCCG
DNA 2: CGGGCCCTG
B15 showed a Kd (ZFP SBS#1424) of 1.37 nM and a Kd (ZFP SBS#1427) of 0.271 nM.

B16: TCGGCCGCC (dsDNA)
DNA 1: TCGGCCGCC
DNA 2: GGCGGCCGA
In the case of B16, the Kd (ZFP SBS#1430) is reported as 0.352 nM, the Kd (ZFP SBS#1432) is reported as 1.78 nM and the Kd (ZFP SBS#1431) is reported as 6.17 nM.

B17: GGAGTGTTA (dsDNA)
DNA 1: GGAGTGTTA
DNA 2: TAACACTCC
In the case of B17, the Kd (ZFP SBS#1439) is reported as 0.075 nM and the Kd (ZFP SBS#1440) is reported as 0.035 nM.

B18: ATAGCTGGG (dsDNA)
DNA 1: ATAGCTGGG
DNA 2: CCCAGCTAT
With B18 the Kd (ZFP SBS#1441) was 0.262 nM.
